Measurements: publication PMC8931250, “A SURF4-to-proteoglycan relay mechanism that mediates the sorting and secretion of a tagged variant of sonic hedgehog” (Proceedings of the National Academy of Sciences of the …, 2022)

B1: GST-SURF4^49-60 [human] / CW peptides (KRRHPKKC) [not stated (human or mouse cDNA cloned)] (parent complex)
chain 1: SEQRDYIDTTWN
chain 2: KRRHPKKC

Variants of: B1
Test: peptide pull-down (peptides on thiopyridone Sepharose 6B), anti-GST immunoblot quantification; n = 3, mean ± SD; parent: 1; read off a plot

ratio to parent	Variant
~0.03	chain 2 AAAHPAAC [chain 2 K1A, chain 2 R2A, chain 2 R3A, chain 2 K6A, chain 2 K7A]
